Measured values taken from patent US20170319655A1.

Key:
[1] = target: flagellin on flagellin-expressing Pseudomonas aeruginosa wild type bacteria (Pseudomonas aeruginosa); test: cell-based or functional assay
[2] = target: MUC1-ED on Ad-NEU1-infected airway epithelial cells (A549 cells; SAECs), desialylated by overexpressed NEU1 (human) (UniProt P15941); test: cell-based or functional assay

Substance: E. coli-expressed deglycosylated MUC1-ED (from E. coli transformed with pMUC1) (from UniProt P15941 24-1097) (receptor)
- reduction of Pa adhesion to A549 monolayers, against the empty vector control [1]: 93%

Substance: desialylated MUC1-ED in bronchoalveolar lavage fluids (BALFs) from Pa-colonized patients (from UniProt P15941 24-1158) (receptor)
- inhibition of Pa adhesion to A549 cells, against BALFs from noncolonized subjects [1]: 52.9%
- inhibition of Pa adhesion to A549 cells, against BALFs from patients colonized with nonPa microorganisms [1]: 42.1%

Substance: desialylated shed MUC1-ED from culture supernates of Ad-NEU1-infected A549 cells (from UniProt P15941 24-1158) (receptor)
- MUC1-ED concentrations capable of inhibiting Pa adhesion in vitro [1]: < 0.63 µg/mL
- reduction of Pa adhesion to A549 monolayers, against MUC1-ED from Ad-GFP-infected ECs [1]: 65%

Substance: MUC1-ED from supernates of airway ECs cultured with the O-glycosylation inhibitor GalNAc-O-bn (from UniProt P15941 24-1158) (receptor)
- reduction of Pa adhesion to A549 monolayers, against its control [1]: 88%

Substance: shed MUC1-ED from culture supernates of flagellin-stimulated A549 cells (from UniProt P15941 24-1158) (receptor)
- MUC1-ED concentrations capable of inhibiting Pa adhesion in vitro [1]: < 0.63 µg/mL

Substance: flagellin on flagellin-expressing Pseudomonas aeruginosa wild type bacteria (ligand)
- Pa adhesion to Ad-NEU1-infected A549 cells (CFUs bound), against Ad-GFP-infected ECs [2]: 2 fold
- Pa adhesion to Ad-NEU1-infected SAECs (CFUs bound), against Ad-GFP-infected SAECs [2]: 3.4 fold
